Experimental data from US20220195497A1 (ROCHE DIAGNOSTICS OPERATIONS, published 2022).

T1: hTK (UniProt P04183 1-234)
T1 sequence (looked up): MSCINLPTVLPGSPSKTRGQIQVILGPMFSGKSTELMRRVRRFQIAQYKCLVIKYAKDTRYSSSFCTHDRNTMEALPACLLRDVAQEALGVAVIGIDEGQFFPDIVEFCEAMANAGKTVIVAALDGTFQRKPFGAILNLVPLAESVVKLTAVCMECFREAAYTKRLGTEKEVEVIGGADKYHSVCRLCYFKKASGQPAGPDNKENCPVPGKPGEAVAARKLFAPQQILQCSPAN


What was measured:
[1] = target: T1, hTK; experiment: SPR sandwich matrix on hTK; row = primary antibody; secondary antibody (competitor): 4H4-IgG
[2] = target: T1, hTK; experiment: SPR sandwich matrix on hTK; row = primary antibody; secondary antibody (competitor): Antibody A
[3] = target: T1, hTK; experiment: SPR sandwich matrix on hTK; row = primary antibody; secondary antibody (competitor): 23C11-IgG
[4] = target: T1, hTK; experiment: SPR sandwich matrix on hTK; row = primary antibody; secondary antibody (competitor): 6C6-IgG

| Binder | Molar Ratio Epitope Accessibility (MREA) [1] | Molar Ratio Epitope Accessibility (MREA) [2] | Molar Ratio Epitope Accessibility (MREA) [3] | Molar Ratio Epitope Accessibility (MREA) [4] |
| --- | --- | --- | --- | --- |
| 4H4-IgG (antibody, V domains shown) VH: CQSLEESGGGLVQPEGSLTLTCTASGFSFSSGYDMCWVRQTPGKGLEWIACISVDSDGVTYYASWAKGRFTISKTSSTTVTLQMTSLTAADTATYFCARGYESSSGVYIPYFTLWGPGTLVTVSS VL: DIVLTQTPASVEAAVGGTVTIKCQASQSIYSYLAWYQHKPGQPPKLLIYKASTLASGVPSRFKGSGSGTEYTLTISDLECADAATYYCQHYYYSSTSGGGVFGGGTEVVVK | 0 | 0.2 | 0 | 0 |
| 23C11-IgG (antibody, V domains shown) VH: CQSLEESGGRLVTPGTPLTLTCTASGFSLSNYYMSWVRQAPGKGLEWIGIIYGDDNTYCANWTKGRFTISKTSTTVDLTITSPTTEDTATYFCARGPDYIAAKMDIWGPGTLVTVSL VL: DVVMTQTPASVEAAVGGTVTIKCQASQSISGYLSWYQQKPGQRPKLLIYRASTLESGVPSRFKGSGSGTEFTLTISDLECADAATYYCQCTYGSSTFSSYGNAFGGGTEVVVK | 0 | 0.2 | 0 | 0 |
| 6C6-IgG (antibody, V domains shown) VH: QEQLEESGGDLVKPEGSLTLTCTASRFSFSSSYWICWVRQAPGKGLEWIACIYAGDSGSSYYASWAKGRFTVSKTSSTTVTLQTTSLTAADTATYFCARASVGAAYDYFALWGPGTLVTVSS VL: ALVMTQTPASVEAAMGGTVTIKCQASEDVSSHLAWYQQRPGQPPKLLIYGASDLASGVPSRFTGSGSGTQFTLAISDLECADAATYYCQGYYYISDSPYVFGGGTEVVVK | 0 | 0.4 | 0 | 0 |
